Entries after “also recorded” stand apart in the source; their conditions may differ. Where two headings read alike, the source gives them in different places.

One series addresses T1, GCase ProSNA constructs (Homo sapiens, UniProt P04062).
T1 sequence (P04062 40-536): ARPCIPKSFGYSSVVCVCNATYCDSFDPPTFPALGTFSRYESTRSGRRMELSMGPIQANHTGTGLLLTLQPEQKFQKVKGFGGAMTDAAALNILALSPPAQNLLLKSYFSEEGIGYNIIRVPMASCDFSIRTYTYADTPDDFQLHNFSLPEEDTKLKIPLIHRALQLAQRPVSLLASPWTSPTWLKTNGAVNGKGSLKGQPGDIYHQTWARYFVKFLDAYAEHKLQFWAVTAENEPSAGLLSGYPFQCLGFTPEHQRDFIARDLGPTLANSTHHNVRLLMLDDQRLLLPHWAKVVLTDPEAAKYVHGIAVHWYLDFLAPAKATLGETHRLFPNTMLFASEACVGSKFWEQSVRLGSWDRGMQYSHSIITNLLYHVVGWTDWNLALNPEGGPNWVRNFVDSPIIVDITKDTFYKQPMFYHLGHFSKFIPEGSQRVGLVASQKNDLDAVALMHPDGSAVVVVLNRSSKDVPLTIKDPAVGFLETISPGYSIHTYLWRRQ
The note with it: co-incubation / co-assembly of activator with GCase ProSNA construct.

Another series deals with native GCase protein (Homo sapiens, UniProt P04062). The note with it: GCase 1.9 mg/mL, quetiapine introduced 30 minutes prior to substrate, FIG. 10. How it is done: The purpose behind enzyme replacement therapy (ERT) is to replace protein that is either absent or dysregulated. […] This assay was completed using the same fluorometric kit described above, with quetiapine being introduced 30 minutes prior to the GCase substrate.

For series [1], the system named is α-synuclein protein aggregates. The note with it: cited from earlier work.
In another series the target is T2, GCase (Homo sapiens, UniProt P04062).
T2 construct: purchased GenScript; host or cells: CHO expression system
T2 sequence (P04062 40-536): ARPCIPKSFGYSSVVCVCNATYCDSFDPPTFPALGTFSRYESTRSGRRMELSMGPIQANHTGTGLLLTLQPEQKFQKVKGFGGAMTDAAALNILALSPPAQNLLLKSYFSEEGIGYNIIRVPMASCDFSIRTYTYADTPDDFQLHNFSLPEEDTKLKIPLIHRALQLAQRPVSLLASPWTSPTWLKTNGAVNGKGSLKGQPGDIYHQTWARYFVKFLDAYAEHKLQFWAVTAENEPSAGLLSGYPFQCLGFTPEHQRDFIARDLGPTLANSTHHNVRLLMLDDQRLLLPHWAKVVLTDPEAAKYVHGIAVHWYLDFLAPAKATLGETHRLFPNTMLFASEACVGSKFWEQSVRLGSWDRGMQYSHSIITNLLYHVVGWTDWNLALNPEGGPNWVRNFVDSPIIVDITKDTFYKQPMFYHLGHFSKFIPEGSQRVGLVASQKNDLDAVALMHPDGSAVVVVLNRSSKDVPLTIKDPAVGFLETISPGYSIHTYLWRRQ
The series can be described thus: fluorometric GCase activity assay kit (Abcam) on GCase constructs. Format: biochemical. Particulars: constructs at 0.24 mg/mL, GCase substrate 30 minutes at 37° C., FIG. 9; for protein activity after functionalization, compared with unmodified GCase: fluorescence Ex/Em=360/445. On the procedure: Upon interaction with active GCase, this substrate releases a fluorophore detectable using a plate reader at Ex/Em=360/445 nm.
Following the synthesis process, a comprehensive investigation into the impact of synthesis on protein activity was conducted. To assess this, we employed a fluorometric GCase activity assay kit (Abcam), using a synthetic substrate-4-Methylumbelliferyl β-D-glucopyranoside. Upon interaction with active GCase, this substrate releases a fluorophore detectable using a plate reader at Ex/Em=360/445 nm. The focus extended to evaluating the effects of PEGylation on GCase, along with modifications involving univalent (sole presence of the transferrin aptamer) or bivalent (co-presence of both transferrin and folate) DNA ligands. By using the protocol outlined in this assay, the aim was to understand and analyze the variations in protein activity resulting from these modifications. Briefly, GCase constructs (all at 0.24 mg/mL) were reacted with GCase substrate for 30 minutes at 37° C. They were then measured for fluorescence intensity at Ex/Em=360/445. […] This was a key finding as PEGylation is currently one of the most used methods to improve protein delivery.

In series [2] the test system is neurons (dopaminergic), astrocytes, and microglia. The series can be described thus: flow cytometry uptake into neuronal cell types. Format: cell-based. An excerpt:
The ability of the GCase ProSNA constructs to be taken up into cells will be assessed. To investigate their uptake potential, flow cytometry is used as a method for determining the percent uptake of the constructs compared to control groups (unmodified GCase protein, linear bivalent DNA ligand, GCase-Transferrin aptamer, and GCase-Folic Acid). Constructs are synthesized as described previously, including the fluorescent tagging the GCase protein core as well as including a Cyanine3 dye into the aptamer sequence (Folate-SEQ ID NO: 1-Cy3-DBCO dT). Once prepared, the constructs are used to treat different mono-populations of different neuronal cell types, including neurons (dopaminergic), astrocytes, and microglia, to evaluate their uptake ability. In all cases, a live dead stain is used to determine percent uptake in viable populations. Furthermore, uptake across different time points is assessed to determine the rates at which the constructs are endocytosed and processed by the different cell types.

The test system of series [3] is Human endothelial cells cultured alone or with microglial and astrocyte cells on a transwell membrane.
Protocol: The ability of the construct to pass the BBB is also assessed. […] To investigate this an in vitro transwell model of transcytosis is used. Human endothelial cells are cultured alone or in concert with microglial and astrocyte cells on a transwell membrane. Once confluent, the constructs are added to the apical side of the insert and their transcytosis through the cell monolayer to the basolateral side of the insert is quantified by fluorescence.
For series [4] the following is noted: mouse, in vivo.
Protocol: Fluorescently labeled constructs are administered to mice by different routes of injection including intravenously by way of retroorbital or tail vein injection, as well as intrathecally. At set time points the mice are imaged using IVIS to track the biodistribution patterns.

Description for GCase ProSNA constructs: Next, the assay is repeated with generated GCase ProSNA constructs to investigate whether some of the activity lost during activation can be recovered.

For the molecule `Nc1c(Br)cc(Br)cc1CN[C@H]1CC[C@H](O)CC1` [Ambroxol], at GCase ProSNA constructs, the “GCase activity of ProSNA constructs with small molecule activator” value is reported as “elevation in enzyme activity; also recorded: partial recovery of GCase activity”.

With `OCCOCCN1CCN(C2=Nc3ccccc3Sc3ccccc32)CC1` [quetiapine], the “activity of the native GCase protein” value on native GCase protein (5 μM quetiapine) and at native GCase protein (10 μM quetiapine) was “sufficient to increase the activity of the native protein” in each case. In addition, the “GCase activity of ProSNA constructs with small molecule activator” value at GCase ProSNA constructs is reported as “elevation in enzyme activity; also recorded: partial recovery of GCase activity”. Besides, the “presence of α-synuclein protein aggregates” value in series [1] is on record as “reduce the presence of α-synuclein protein aggregates”.

B1: Bivalent ProSNA: GCase protein functionalized with the bivalent ligand (folate modified transferrin aptamer), roughly 14-18 ligands per protein (conjugate, UniProt P04062 40-536, looked up)
Lysosomal acid …: ARPCIPKSFGYSSVVCVCNATYCDSFDPPTFPALGTFSRYESTRSGRRMELSMGPIQANHTGTGLLLTLQPEQKFQKVKGFGGAMTDAAALNILALSPPAQNLLLKSYFSEEGIGYNIIRVPMASCDFSIRTYTYADTPDDFQLHNFSLPEEDTKLKIPLIHRALQLAQRPVSLLASPWTSPTWLKTNGAVNGKGSLKGQPGDIYHQTWARYFVKFLDAYAEHKLQFWAVTAENEPSAGLLSGYPFQCLGFTPEHQRDFIARDLGPTLANSTHHNVRLLMLDDQRLLLPHWAKVVLTDPEAAKYVHGIAVHWYLDFLAPAKATLGETHRLFPNTMLFASEACVGSKFWEQSVRLGSWDRGMQYSHSIITNLLYHVVGWTDWNLALNPEGGPNWVRNFVDSPIIVDITKDTFYKQPMFYHLGHFSKFIPEGSQRVGLVASQKNDLDAVALMHPDGSAVVVVLNRSSKDVPLTIKDPAVGFLETISPGYSIHTYLWRRQ
modifications: folate-modified transferrin aptamer shell, 14-18 ligands
notes: GCase protein functionalized with the bivalent ligand (folate modified transferrin aptamer), roughly 14-18 ligands per protein
Take B1: in the series with GCase, the “protein activity after functionalization, compared with unmodified GCase” value is given as “functionalization does impact protein activity; also recorded: reduction of overall activity”; the “protein activity, PEGylated protein versus ProSNA constructs” value was “significant increase in activity”; the “protein activity, univalent versus bivalent constructs” value is “no significant difference between the univalent and bivalent variations; also recorded: no significant difference between the uni- and bivalent constructs”. Besides, the “rates of uptake across time points” value in series [2] (different time points) was “highest at shorter time points”. The “uptake into cells compared to control groups” value in series [2] (neurons (dopaminergic), astrocytes, microglia, flow cytometry) is recorded as “enhance its uptake into all cell types”. Also, in series [3], the “rate of transcytosis across the blood-brain barrier” value is “significant increase in the rate of transcytosis across the blood-brain barrier was observed” and the “rate of transcytosis compared to control groups” value is “higher rate of transcytosis when compared to control groups”. In addition, the “biodistribution (localization to the brain space)” value in series [4] was “localize to the brain space in higher concentrations when compared to control groups”.

B2: PEGylated protein: GCase after PEGylation, comparator in the activity assay (conjugate, UniProt P04062 40-536, looked up)
Lysosomal acid …: ARPCIPKSFGYSSVVCVCNATYCDSFDPPTFPALGTFSRYESTRSGRRMELSMGPIQANHTGTGLLLTLQPEQKFQKVKGFGGAMTDAAALNILALSPPAQNLLLKSYFSEEGIGYNIIRVPMASCDFSIRTYTYADTPDDFQLHNFSLPEEDTKLKIPLIHRALQLAQRPVSLLASPWTSPTWLKTNGAVNGKGSLKGQPGDIYHQTWARYFVKFLDAYAEHKLQFWAVTAENEPSAGLLSGYPFQCLGFTPEHQRDFIARDLGPTLANSTHHNVRLLMLDDQRLLLPHWAKVVLTDPEAAKYVHGIAVHWYLDFLAPAKATLGETHRLFPNTMLFASEACVGSKFWEQSVRLGSWDRGMQYSHSIITNLLYHVVGWTDWNLALNPEGGPNWVRNFVDSPIIVDITKDTFYKQPMFYHLGHFSKFIPEGSQRVGLVASQKNDLDAVALMHPDGSAVVVVLNRSSKDVPLTIKDPAVGFLETISPGYSIHTYLWRRQ
modifications: PEGylated
Turning to B2, the “protein activity, PEGylated protein versus ProSNA constructs” value with GCase is on record as “significant increase in activity when comparing the PEGylated protein to both ProSNA constructs”.

B3: Univalent ProSNA: GCase protein functionalized with only the transferrin aptamer (conjugate, UniProt P04062 40-536, looked up)
Lysosomal acid …: ARPCIPKSFGYSSVVCVCNATYCDSFDPPTFPALGTFSRYESTRSGRRMELSMGPIQANHTGTGLLLTLQPEQKFQKVKGFGGAMTDAAALNILALSPPAQNLLLKSYFSEEGIGYNIIRVPMASCDFSIRTYTYADTPDDFQLHNFSLPEEDTKLKIPLIHRALQLAQRPVSLLASPWTSPTWLKTNGAVNGKGSLKGQPGDIYHQTWARYFVKFLDAYAEHKLQFWAVTAENEPSAGLLSGYPFQCLGFTPEHQRDFIARDLGPTLANSTHHNVRLLMLDDQRLLLPHWAKVVLTDPEAAKYVHGIAVHWYLDFLAPAKATLGETHRLFPNTMLFASEACVGSKFWEQSVRLGSWDRGMQYSHSIITNLLYHVVGWTDWNLALNPEGGPNWVRNFVDSPIIVDITKDTFYKQPMFYHLGHFSKFIPEGSQRVGLVASQKNDLDAVALMHPDGSAVVVVLNRSSKDVPLTIKDPAVGFLETISPGYSIHTYLWRRQ
modifications: transferrin aptamer DNA shell
Take B3: in the series with GCase, the “protein activity after functionalization, compared with unmodified GCase” value was “functionalization does impact protein activity”; the “protein activity, PEGylated protein versus ProSNA constructs” value was “significant increase in activity”; the “protein activity, univalent versus bivalent constructs” value was “no significant difference between the univalent and bivalent variations; also recorded: no significant difference between the uni- and bivalent constructs”.

The record behind these values is patent US20260224711A1, “ENHANCING BRAIN PERMEABILITY AND ACTIVITY OF GLUCOSYLCERAMIDASE (GCase) PROSNA FOR NEURODEGENERATIVE DISEASES” (NORTHWESTERN UNIVERSITY, priority 2023, published 2026).
